{"source": "patent US20260227416A1", "about": "(published 2026)", "binders": {"B1": {"name": "Rituximab chimeric antibody (antibody, human IgG1, kappa, V domains shown)", "VH": "VQLQQPGAELVKPGASVKMSCKASGYTFTSYNMHWVKQTPGRGLEWIGAIYPGNGDTSYNQKFKGKATLTADKSSSTAYMQLSSLTSEDSAVYYCARSTYYGGDWYFNVWGAGTTVTVSA", "VL": "QIVLSQSPAILSASPGEKVTMTCRASSSVSYIHWFQQKPGSSPKPWIYATSNLASGVPVRFSGSGSGTSYSLTISRVEAEDAATYYCQQWTSNPPTFGGGTKLEIKR"}}, "molecular_target": "T1, CD20 on SU-DHL4 cells (UniProt P11836 1-297, limits assumed)", "T1 sequence (looked up)": "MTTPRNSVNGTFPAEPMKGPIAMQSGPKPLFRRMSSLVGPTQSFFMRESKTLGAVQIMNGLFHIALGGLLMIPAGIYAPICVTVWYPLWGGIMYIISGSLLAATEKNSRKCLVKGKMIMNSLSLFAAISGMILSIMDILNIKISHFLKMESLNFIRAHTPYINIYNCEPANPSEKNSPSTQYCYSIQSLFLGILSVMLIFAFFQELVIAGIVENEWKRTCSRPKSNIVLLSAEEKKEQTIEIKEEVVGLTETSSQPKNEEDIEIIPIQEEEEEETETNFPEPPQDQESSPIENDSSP", "assay": "cell-based or functional assay"}
{"binder": "B1", "values": [{"measurement": "EC50 values of target cell killing (ADCC, SU-DHL4 target cells)", "result": "~10", "unit": "ng/mL"}]}
